From the supplement of paper PMC10126150
± gives the standard deviation of the averaged measurements.

Test system: ATP
Test: switch fluorescence ratio, 500 uM ATP over buffer (Cy3 cluster intensity, sum of 5 cycles each) (fold (ratio)); higher = stronger signal-on switching upon ATP binding; sequences stand for … in TCGTCGGCAGCGTCAGATGTGTATAAGAGACAGTTTTTTTTTTTTTTTTTTTTTTTTT…TC
Conditions: aptamer strand: ATP DNA aptamer (quencher-CACCTGGGGGAGTATTGCGGAGGAAGG + anchor), 100 nM annealed; ATP concentration: 500 uM
Procedure, shortened: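 Exposure to 500 uM ATP lasted 15 min at 22 °C before imaging, and a selection-buffer image was taken beforehand, for Cy3-labelled switching-strand clusters on a modified Illumina MiSeq flow-cell annealed to 100 nM quencher-labelled ATP aptamer. Five buffer/ATP cycles were run with NaOH stripping and re-annealing between them. The fluorescence ratio per cluster is summed target-cycle over summed buffer-cycle Cy3 intensity, averaged per switch-domain sequence. Clusters outside 100-1000 RFU were excluded.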

Sequence | switch fluorescence ratio
GAGGGTTTGA | 1.0098 ± 0.00022
GAGGTACTGG | 1.018 ± 0.008
GAGGTACTTT | 0.993 ± 0.022
GAGGTAGCGT | 1.01 ± 0.015
GAGGTATGGG | 0.9761 ± 0.0077
GAGGTATTAT | 0.9688 ± 0.0074
GAGGTCGAAA | 0.98 ± 0.013
GAGGTGAGTT | 0.983 ± 0.01
GAGGTGCCTA | 0.991 ± 0.02
GAGGTGGGCT | 1 ± 0.067
GAGGTGGGGG | 0.993 ± 0.029
GAGGTGGGTG | 1.015 ± 0.0056
GAGGTGTTGA | 0.9979 ± 0.003
GAGGTTAAAT | 0.992 ± 0.034
GAGGTTATAC | 1.38 ± 0.042
GAGGTTATAT | 0.992 ± 0.017
GAGGTTGGAT | 0.982 ± 0.016
GAGGTTGGGC | 0.993 ± 0.03
GAGGTTGTGG | 0.973 ± 0.06
GAGGTTTGGC | 0.988 ± 0.051
GAGTAAAATT | 1.13 ± 0.18
GAGTAAAGTC | 0.934 ± 0.029

Sequence | switch fluorescence ratio
GAGTAACTCG | 1.007 ± 0.0067
GAGTAACTGG | 0.983 ± 0.027
GAGTAAGTGC | 0.972 ± 0.053
GAGTAATGTT | 1.02 ± 0.016
GAGTACAAAA | 1.02 ± 0.015
GAGTACCAGG | 1.25 ± 0.017
GAGTACTAGT | 1.015 ± 0.0072
GAGTACTGAG | 1.163 ± 0.0012
GAGTACTGTT | 0.972 ± 0.045
GAGTAGGACC | 1.03 ± 0.016
GAGTAGTAGT | 0.967 ± 0.026
GAGTAGTATA | 0.992 ± 0.049
GAGTATCTTT | 0.998 ± 0.018
GAGTATGGGA | 0.983 ± 0.034
GAGTATTAAT | 1.01 ± 0.02
GAGTCATGAG | 1.06 ± 0.049
GAGTCGGTGG | 1.4 ± 0.63
GAGTCGTGTG | 1.04 ± 0.024
GAGTGAAGGG | 1.02 ± 0.016
GAGTGAAGGT | 0.9963 ± 0.008
GAGTGAGGCA | 0.981 ± 0.02
GAGTGAGTGG | 1.019 ± 0.0056

Sequence | switch fluorescence ratio
GAGTGATGGC | 1.03 ± 0.014
GAGTGCATGG | 1 ± 0.012
GAGTGCCGTG | 1.01 ± 0.065
GAGTGCGAAC | 1.05 ± 0.082
GAGTGCGGTT | 0.99 ± 0.057
GAGTGGGTAG | 1.03 ± 0.025
GAGTGGTTGC | 1.05 ± 0.12
GAGTGTCGGC | 0.9963 ± 0.0052
GAGTGTTTTG | 0.9957 ± 0.008
GAGTTAAGGA | 1.02 ± 0.03
GAGTTAGGCA | 1.029 ± 0.0098
GAGTTAGGGC | 0.99 ± 0.011
GAGTTAGGGG | 0.998 ± 0.018
GAGTTAGTAG | 0.966 ± 0.02
GAGTTAGTGT | 1.03 ± 0.017
GAGTTATCG | 1.01 ± 0.018
GAGTTATGG | 0.995 ± 0.043
GAGTTATGGA | 1.03 ± 0.019
GAGTTATTCG | 1.02 ± 0.023
GAGTTCAATG | 1.01 ± 0.03
GAGTTCGAGG | 1.02 ± 0.037
GAGTTCGCGT | 1.093 ± 0.0049

Sequence | switch fluorescence ratio
GAGTTGAGGG | 0.973 ± 0.023
GAGTTGGGAT | 1.01 ± 0.011
GAGTTGGGCT | 0.979 ± 0.012
GAGTTTAATC | 1 ± 0.018
GAGTTTAGGA | 0.969 ± 0.034
GAGTTTAGTT | 0.9893 ± 0.0064
GAGTTTGGG | 1 ± 0.02
GAGTTTGTGG | 0.998 ± 0.024
GAGTTTTATG | 0.9631 ± 0.0025
GAGTTTTGAG | 1 ± 0.011
GAGTTTTGCG | 1.03 ± 0.093
GAGTTTTGGA | 1.02 ± 0.026
GAGTTTTTGG | 0.973 ± 0.015
GAGTTTTTTA | 0.98 ± 0.046
GATAAAAGGC | 0.997 ± 0.024
GATAAAATAG | 1.17 ± 0.2
GATAAAGAAG | 0.9999 ± 0.0071
GATAACCATG | 0.9933 ± 0.0035
GATAACTGAA | 1.068 ± 0.0072
